From article PMC3154886 (Molecular Biology of the Cell, 2011) come the findings set out here.

For the test, the target named is Human EB3 (end-binding protein 3) (human, UniProt Q9UPY8 1-281). Nature of the test: cross-linking.
Human EB3 (end-binding protein 3), sequence (Q9UPY8 whole entry): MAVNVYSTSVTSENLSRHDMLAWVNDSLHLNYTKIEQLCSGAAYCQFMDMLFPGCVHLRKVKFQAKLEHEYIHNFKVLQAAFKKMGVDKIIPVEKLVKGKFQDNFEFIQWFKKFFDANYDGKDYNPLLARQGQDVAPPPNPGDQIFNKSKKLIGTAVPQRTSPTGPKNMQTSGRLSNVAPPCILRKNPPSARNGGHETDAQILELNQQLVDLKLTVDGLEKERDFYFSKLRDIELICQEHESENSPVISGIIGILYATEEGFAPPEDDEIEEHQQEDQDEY

B1: Human EB1 (end-binding protein 1) (natural protein)
chain: MAVNVYSTSVTSDNLSRHDMLAWINESLQLNLTKIEQLCSGAAYCQFMDMLFPGSIALKKVKFQAKLEHEYIQNFKILQAGFKRMGVDKIIPVDKLVKGKFQDNFEFVQWFKKFFDANYDGKDYDPVAARQGQETAVAPSLVAPALNKPKKPLTSSSAAPQRPISTQRTAAAPKAGPGVVRKNPGVGNGDDEAAELMQQVNVLKLTVEDLEKERDFYFGKLRNIELICQENEGENDPVLQRIVDILYATDEGFVIPDEGGPQEEQEEY
Consider B1, for which the binding result is recorded as “binds”.
